What all share (assay): cell-based or functional assay
The target in experiment [1] is 92RW020 Env on pseudovirus (HIV-1 92RW020).
For experiment [2], the target named is ADA Env on pseudovirus (HIV-1 ADA).
Experiment [3] deals with HIV-1 JR-CSF Env on pseudovirus (HIV-1 JR-CSF) (UniProt P20871).
Experiment [4] has as its target JR-CSF(1309A) Env on pseudovirus (HIV-1 JR-CSF) (UniProt P20871).
Experiment [5] deals with JR-CSF(Y318A) Env on pseudovirus (HIV-1 JR-CSF) (UniProt P20871).
In experiment [6] the target is JR-FL(E168K) Env on pseudovirus (HIV-1 JR-FL).

B1: 1503_H05 (PG16) (TCN-119) (antibody, V domains shown)
VH: QEKLVESGGGVVQPGGSLRLSCLASGFTFHKYGMHWVRQAPGKGLEWVALISDDGMRKYHSDSMWGRVTISRDNSKNTLYLQFSSLKVEDTAMFFCAREAGGPIWHDDVKYYDFNDGYYNYHYMDVWGKGTIVTVSS
VL: QSALTQPASVSGSPGQTITISCNGTRSDVGGFDSVSWYQQSPGKAPKVMVFDVSHRPSGISNRFSGSKSGNTASLTISGLHIEDEGDYFCSSLTDRSHRIFGGGTKVTVLG
B1: the IC50 (ug/ml), pseudovirus neutralization, TZM-bl assay is 0.02 µg/mL in experiment [1]; 0.003 µg/mL in experiment [2]; 0.001 µg/mL in experiment [3]; greater than 1 µg/mL in experiment [4]; greater than 1 µg/mL in experiment [5]; 0.002 µg/mL in experiment [6].

B2: 1469_M23 (PG16) (TCN-118) (antibody, V domains shown)
VH: QEKLVESGGGVVQPGGSLRLSCLASGFTFHKYGMHWVRQAPGKGLEWVALISDDGMRKYHSDSMWGRVTISRDNSKNTLYLQFSSLKVEDTAMFFCAREAGGPIWHDDVKYYDFNDGYYNYHYMDVWGKGTTVTVSS
VL: QSALTQPASVSGSPGQTITISCNGTRSDVGGFDSVSWYQQSPGRAPKVMVFDVSHRPSGISNRFSGSKSGNTASLTISGLHIEDEGDYFCSSLTDRSHRIFGGGTKLTVLG
Consider B2, for which the IC50 (ug/ml), pseudovirus neutralization, TZM-bl assay was 0.05 µg/mL in experiment [1]; 0.005 µg/mL in experiment [2]; 0.002 µg/mL in experiment [3]; greater than 1 µg/mL in experiment [4]; greater than 1 µg/mL in experiment [5]; 0.005 µg/mL in experiment [6].

B3: 1456_A12 (PG16) (TCN-117) (antibody, V domains shown)
VH: HEQLVEAGGGVVQPGGSLRLSCLASGFTFHKYGMHWVRQAPGKGLEWVALISDDGMRKYHSDSMWGRVTISRDNSKNTLYLQFSSLRVEDTAMFFCAREAGGPIWHDDVKYYDFNDGYYNYHYMDVWGKGTKVTVSS
VL: QSALTQPASVSGSPGQTITISCNGTSRDVGGFDSVSWYQQSPGKAPKVMVFDVSHRPSGMSNRFSGSKSGNTASLTISGLHIEDEGDYFCSSLTDRSHRIFGGGTKLTVLG
Regarding B3, the IC50 (ug/ml), pseudovirus neutralization, TZM-bl assay is 0.05 µg/mL in experiment [1]; 0.005 µg/mL in experiment [2]; 0.001 µg/mL in experiment [3]; greater than 1 µg/mL in experiment [4]; greater than 1 µg/mL in experiment [5]; 0.003 µg/mL in experiment [6].

B4: 1489_I13 (PG16) (TCN-120) (antibody, V domains shown)
VH: QEQLLESGGGVVQPGGSLRLSCLASGFTFHKYGMHWVRQAPGKGLEWVALISDDGMRKYHSNSMWGRVTISRDNSKNTLYLQFSSLKVEDTAMFFCAREAGGPIWHDDVKYYDFNDGYYNYHYMDVWGKGTTVTVSS
VL: QSALTQPASVSGSPGQTITISCNGTSSDVGGFDSVSWYQQSPGKAPKVMVFDVSHRPSGISNRFSGSKSGNTASLTISGLHIEDEGDYFCSSLTDRSHRIFGGGTKVTVLG
B4: the IC50 (ug/ml), pseudovirus neutralization, TZM-bl assay is 0.03 µg/mL in experiment [1]; 0.008 µg/mL in experiment [2]; 0.002 µg/mL in experiment [3]; greater than 1 µg/mL in experiment [4]; greater than 1 µg/mL in experiment [5]; 0.005 µg/mL in experiment [6].

(Values after US20140205612A1.)
